Assay results published in patent US20050112552A1, “Identification and isolation of novel polypeptides having PDZ domains and methods of using same” (AxCell Biosciences Corporation, priority 2000, published 2005).
Where two headings read alike, the source gives them in different places. Where no end group is shown, it is not given here.

How the values were obtained:
[1] = target: T1, interaction between the first PDZ domain in PSD-95 and the carboxy terminal peptide sequence of Na channel protein (Homo sapiens, UniProt P78352); assay: Competitive inhibition analysis of PDZ domain-peptide ligand interaction; type: binding; settings: GST-PSD-95.1 coated plates, biotinylated Na+ channel peptide (SEQ ID NO:51), various inhibitor concentrations, A405 nm
T1 construct: a GST-PSD-95.1 fusion protein of the first PDZ domain of PSD-95; made in house
Source text: FIG. 19 presents a competitive inhibition analysis of the interaction between the first PDZ domain in PSD-95 and the carboxy terminal peptide sequence of Na channel protein. GST fusion protein containing the first PZD domain of PSD-95 was contacted with a recognition unit-peptide complex corresponding to the 12 carboxyl terminal amino acids of Na^+ channel protein (FIG. 5A, SEQ ID NO:51) and various concentrations of 1 of 3 different inhibitor peptide complexes. Binding of the dimer inhibitor peptide in the presence of streptavidin alkaline phosphatase/Biotin-Ser-Gly-Ser-Gly-Pro-Pro-Ser-Pro-Asp-Arg-Asp-Arg-Glu-Ser-Ile-Val-COOH (SEQ ID NO:157) is presented as a solid box. Binding of the recognition unit in the presence of a peptide corresponding to the 5 carboxy terminal residues of the Na^+ channel protein (SEQ ID NO:105) (hatched box), and in the presence of a scrambled version of this 5mer (SEQ ID NO:158) (open box), are also presented. Binding of the biotinylated peptide was quantitated at A405 nm. […]
An inhibition assay essentially as described in Section 5.4 was performed to assess the ability of PDZ ligands to uncouple NOS from the NMDA receptor. […] Particularly, biotinylated peptide and various concentrations of an inhibitor were added to microtiter plates coated with the GST-PSD-95.1 fusion protein and the binding interactions were quantified as described above. […]

PDZP3.1 = PDZP3.1 (Homo sapiens, UniProt Q8NI35); settings: GST fusion protein
Chain of PDZP3.1 (Q8NI35 1433-1519 limits assumed): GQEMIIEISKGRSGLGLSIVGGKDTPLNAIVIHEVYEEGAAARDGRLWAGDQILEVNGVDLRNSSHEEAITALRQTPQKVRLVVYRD
Description: (§1) Assays that generate the data, e.g., that of FIGS. 5A and 5B, are conducted in the presence of various compounds that potentially effect the binding of the domains to respective recognition units.
(§2) To determine the ligand preferences of the novel PDZ domain-containing clones described in Section 6.1 the novel PDZ domains derived from PDZP2, PDZP3, KIAA-147, and the three PDZ domains of PSD-95 and Chapsyn were subcloned into glutathione S-transferase (GST) expression vectors and expressed as GST fusion proteins. We examined the peptide ligand binding preferences of all sixteen individual PDZ domains in an enzyme-linked immunosorbent assay-based cross-affinity map experiment. As mentioned above, 45 peptides were chosen from database searches and grouped into seven classes (G-protein coupled receptors, viral proteins, glutamate receptors, ion channels, Frizzled homologs, transporters and various other proteins). We tested the ability of these peptides to bind to the known and novel PDZ domains.
(§3) PCR fragments encoding individual PDZ domains were subcloned into the Sal1 and Notl sites of pGEX-4T-2 (Pharmacia Biotech, Inc.) and fusion proteins were expressed and purified as described by the manufacturer. ELISA based cross-affinity experiments were performed essentially as described by Sparks et al. (1996, Proc. Natl. Acad. Sci. USA 93:1540-1544) with the following modifications. Briefly, microtiter wells were coated with […] of fusion protein in 100 mM NaHCO3, blocked with SuperBlock TBS (Pierce) and washed four times with PBS, 0.05% Tween 20. Specific peptide-streptavidin/alkaline phosphatase complexes were added as above and unbound complexes washed five times with PBS, 0.05% Tween 20. Following addition of PNP substrate (p-nitrophenyl phosphate, Kirkegard & Perry Labs), peptide binding was quantitated after 30 min. at O.D. 405 nm. Relative binding measurements from three independent determinations were assigned to a scale as follows: O.D. units 0−0.5=(−), 0.5−1.0=(+), 1.0−2.0=(++), 2.0−3.0=(+++)>3.0=(++++). Peptide sequences used in cross-affinity experiments correspond to C-terminal segments of the following proteins: protein name (species: H=Human; M=Mouse; R=Rat; B=Bovine; V=Viral Origin, Genbank accession number); β1-adrenoreceptor (H, P18090); Serotonin Receptor (H, P28223); VIP Receptor (H, P32241); CRF Receptor (H, P34998); Orphan Receptor (H, P46089); β-1 Adrenergic Receptor (H, P08588); COM (ADE02, P03267); E6, HPV18 (V, P06463); UL25, HSV11 (V, P10209); GP3, EBV (V, P03200); TAT, HTL1A (V, P03409); UL14, VZVD (V, P09295); NMDA Receptor, NR2B (M, Q01097); NMDA Receptor subunit (H, U08266); mGluR1α (H, U31215); mGluR5a (H, D28538); mGluR (H, L76631); mGluR3 (H, AC002081); AMPA receptor (H, L20814); K^+-Channel, KV 1.4 (H, P22459); K^+-Channel Kir 2.2v (H, U53143); Na^+-Channel (a) (H, P15389); K^+-Channel (Kir) (H, D50582); Transmembrane Receptor (Homolog of frizzled ) (H, U43318); Homolog of frizzled (R, L02529); Homolog of frizzled (M, U43319); Glucose transporter (H, P11166); Excitatory Amino Acid Transporter (H, P43003); FAS Receptor (H, P25445); NGF Receptor (H, P08138); Neuropeptide Y Receptor, type 2 (H, P49146); Somatostatin Receptor, type 2 (H, P30874); CFTR (H, P13569); V-CAM (H, P19320); Ankyrin (H, Q01484); Fanconi anemia group C protein (H , Q00597); Calcium pump (H, P23634); APC protein (H, P25054); BCR, (H, P11274); MPK2 (H, P36507); Colorectal Mutant Cancer Protein (H, P23508); 65 KD Yes-Associated Protein (H, P46937); Neutrophil Cytosol Factor 1 (H, P14598); Neurexin III, (B, L27869); Neurexin II (B, L14855). Protein sequence homology searches were performed using BLAST (Altschul et al., 1990, J. Mol. Biol. 215:403-410).

PDZP3.2 = PDZP3.2 (Homo sapiens, UniProt Q8NI35); settings: GST fusion protein
Chain of PDZP3.2 (Q8NI35 1530-1614 limits assumed): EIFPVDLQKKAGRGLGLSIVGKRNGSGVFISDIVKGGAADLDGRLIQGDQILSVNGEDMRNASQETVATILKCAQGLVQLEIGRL
Description: as §1, §2, §3

PDZP2.1 = PDZP2.1 (Homo sapiens, UniProt Q96QZ7, D549G/L550P); settings: GST fusion protein
Chain of PDZP2.1 (Q96QZ7 468-553 D549G/L550P limits assumed): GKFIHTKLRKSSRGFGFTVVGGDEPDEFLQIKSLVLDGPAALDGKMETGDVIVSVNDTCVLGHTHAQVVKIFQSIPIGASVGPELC
Description: as §1, §2, §3

PDZP2.2 = PDZP2.2 (Homo sapiens, UniProt Q96QZ7); settings: GST fusion protein
Chain of PDZP2.2 (Q96QZ7 639-720 limits assumed): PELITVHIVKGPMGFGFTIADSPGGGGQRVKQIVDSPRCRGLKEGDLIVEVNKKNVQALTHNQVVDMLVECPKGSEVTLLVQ
Description: as §1, §2, §3

PDZP2.4 = PDZP2.4 (Homo sapiens, UniProt Q96QZ7); settings: GST fusion protein
Chain of PDZP2.4 (Q96QZ7 with tags, fused parts or gaps isoform Q96QZ7-2 limits assumed): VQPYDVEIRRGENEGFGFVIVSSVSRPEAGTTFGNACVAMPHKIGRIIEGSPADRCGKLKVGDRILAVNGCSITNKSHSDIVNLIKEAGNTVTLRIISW
Description: as §1, §2, §3

[2] = target: first PDZ domain of PSD-95 (PSD-95-1) (Homo sapiens, UniProt P78352); settings: for binding to the first PDZ domain of PSD-95: cross-affinity map, no test compound, in words; for PDZ domain-recognition unit interaction, PSD-95-1: GST fusion protein
Description: as §1, §2, §3

PDZP2.3 = PDZP2.3 (Homo sapiens, UniProt Q96QZ7); settings: GST fusion protein
Chain of PDZP2.3 (Q96QZ7 837-922 limits assumed): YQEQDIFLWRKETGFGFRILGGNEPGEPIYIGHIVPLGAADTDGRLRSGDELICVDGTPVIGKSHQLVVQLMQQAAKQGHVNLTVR
Description: as §1, §2, §3

[3] = target: T2, second PDZ domain of PSD-95 (Homo sapiens, UniProt P78352); design: PCR fragments encoding individual PDZ domains were subcloned; made in house; settings: stated as known; cited from earlier work
[4] = target: second PDZ domain of Chapsyn (Homo sapiens, UniProt Q15700); settings: cross-affinity map; in words
Source text: as §2, §3

[5] = target: third PDZ domain of PSD-95 (Homo sapiens, UniProt P78352, D348N); settings: cross-affinity map; in words
Source text: as §2, §3

[6] = target: third PDZ domain of Chapsyn (Homo sapiens, UniProt Q15700); settings: cross-affinity map; in words
Source text: as §2, §3

[7] = target: T2, second PDZ domain of PSD-95; settings: cross-affinity map, in words
Source text: as §2, §3

[8] = target: first PDZ domain of Chapsyn (Homo sapiens, UniProt Q15700, V177A); settings: cross-affinity map; in words
Source text: as §2, §3

[9] = listed as NMDA receptor NR2 subunit

AC-Cys-Pro-Pro-Ser-Pro-Asp-Arg-Asp-Arg-Glu-Ser-Ile-Val-COOH (Ac-CPPSPDRDRESIV-OH) [dimer inhibitor]
inhibition of the interaction of the PDZ domain and ligand [1]: able to inhibit

SEQ ID NO. 42: biotinylated peptide, 12 carboxy terminal amino acids of NMDA (NR2B), mouse (VYEKLSSIESDV; not fully specified; also: biotinylated, position not given here)
PDZ domain-recognition unit interaction, PDZ3.1 (PDZP3.1; in the presence of Compound A): + (0.5−1.0=(+)) | PDZ domain-recognition unit interaction, PDZ3.1 (PDZP3.1; in the presence of Compound B): ++++ (>3.0=(++++)) | PDZ domain-recognition unit interaction, PDZ3.1 (PDZP3.1; in the presence of Compound C): ++++ (>3.0=(++++)) | PDZ domain-recognition unit interaction, PDZ3.2 (PDZP3.2; in the presence of Compound A): − (O.D. units 0−0.5=(−)) | PDZ domain-recognition unit interaction, PDZ3.2 (PDZP3.2; in the presence of Compound B): − (O.D. units 0−0.5=(−)) | PDZ domain-recognition unit interaction, PDZ3.2 (PDZP3.2; in the presence of Compound C): − (O.D. units 0−0.5=(−)) | PDZ domain-recognition unit interaction, PDZP2.1 (PDZP2.1; in the presence of Compound A): + (0.5−1.0=(+)) | PDZ domain-recognition unit interaction, PDZP2.1 (PDZP2.1; in the presence of Compound B): ++++ (>3.0=(++++)) | PDZ domain-recognition unit interaction, PDZP2.1 (PDZP2.1; in the presence of Compound C): + (0.5−1.0=(+)) | PDZ domain-recognition unit interaction, PDZ2.2 (PDZP2.2; in the presence of Compound A): + (0.5−1.0=(+)) | PDZ domain-recognition unit interaction, PDZ2.2 (PDZP2.2; in the presence of Compound B): +++ (2.0−3.0=(+++)) | PDZ domain-recognition unit interaction, PDZ2.2 (PDZP2.2; in the presence of Compound C): + (0.5−1.0=(+)) | PDZ domain-recognition unit interaction, PDZ2.4 (PDZP2.4; in the presence of Compound A): + (0.5−1.0=(+)) | PDZ domain-recognition unit interaction, PDZ2.4 (PDZP2.4; in the presence of Compound B): ++++ (>3.0=(++++)) | PDZ domain-recognition unit interaction, PDZ2.4 (PDZP2.4; in the presence of Compound C): + (0.5−1.0=(+)) | binding to the first PDZ domain of PSD-95 [2]: positive interaction | binding to the first PDZ domain of PSD-95 [2, 9]: bind to the first and second PDZ domain | PDZ domain-recognition unit interaction, PSD-95-1 ([2]; in the presence of Compound A): − (O.D. units 0−0.5=(−)) | PDZ domain-recognition unit interaction, PSD-95-1 ([2]; in the presence of Compound B): +++ (2.0−3.0=(+++)) | PDZ domain-recognition unit interaction, PSD-95-1 ([2]; in the presence of Compound C): +++ (2.0−3.0=(+++)) | PDZ domain-recognition unit interaction, PDZ2.3 (PDZP2.3; in the presence of Compound A): + (0.5−1.0=(+)) | PDZ domain-recognition unit interaction, PDZ2.3 (PDZP2.3; in the presence of Compound B): ++++ (>3.0=(++++)) | PDZ domain-recognition unit interaction, PDZ2.3 (PDZP2.3; in the presence of Compound C): + (0.5−1.0=(+)) | binding to the second PDZ domain of PSD-95 [3]: binds | binding to the second PDZ domain of Chapsyn [4]: same binding specificities | binding to the third PDZ domain of PSD-95 [5]: not the third PDZ domain | binding to the third PDZ domain of Chapsyn [6]: same binding specificities | binding to the second PDZ domain of PSD-95 [7]: positive interaction | binding to the second PDZ domain of PSD-95 [7, 9]: bind to the first and second PDZ domain | binding to the first PDZ domain of Chapsyn [8]: same binding specificities

Arg-Glu-Ser-Ile-Val-COOH (RESIV-OH) [5mer containing the carboxy terminal 5 residues of the Na+ channel peptide]
inhibition of the interaction of the PDZ domain and ligand [1]: to a lesser extent
